Publication PMC3536784 (PLoS ONE, 2013)

B1: biphenyl dioxygenase (BPDO_(B356)) α-subunit from Pandoraea pnomenusa B-356 (enzyme)
chain: MSSTMKDTQEAPVRWSRNWTPDAIRALVDQDNGKLDARIYADQDLYQLELERVFGRSWLMLGHETHIPKIGDYLTTYMGEDPVIMVRQKDQSIKVFLNQCRHRGMRIVRSDGGNAKAFTCTYHGWAYDIAGNLVNVPFEKEAFCDKKEGDCGFDKADWGPLQARVETYKGLVFANWDPEAPDLKTYLSDAMPYMDVMLDRTEAGTEAIGGIQKWVIPCNWKFAAEQFCSDMYHAGTMSHLSGVLAGLPPEMDLTQIQLSKNGNQFRSAWGGHGAGWFINDSSILLSVVGPKITQYWTQGPAAEKAARRVPQLPILDMFGQHMTVFPTCSFLPGINTIRTWHPRGPNEVEVWAFVLVDADAPEDIKEEFRLQNIRTFNAGGVFEQDDGENWVEIQRVMRGHKAKSTSLCAKMGLNVPNKNNPAYPGKTAYVYAEEAARGMYHHWSRMMSEPSWDTLKP
notes: Co-produced and co-purified with the β-subunit as the (αβ)3 oxygenase; three copies in the hexamer; Holds a Rieske Fe2S2 cluster and a mononuclear Fe(II); also called α of BphAE; source: heterologously produced and purified anaerobically as described previously [17]
B2: biphenyl dioxygenase (BPDO_(B356)) β-subunit from Pandoraea pnomenusa B-356 (enzyme, UniProt Q46373 1-186, looked up)
chain: MISTPLSKEFEWPAKPVSLELQHQVEQFYYREAQLLDHHAFQAWFALLAEDIHYWMPIRTVRTAREQGLEYVPAGANAHFDDTHATMYGRIRQKTSDLNWAEDPPSRTRHLVSNVIVREMDTPGTLEVASAFLLYRSRLERQVDVFAGERRDVLRIADNPLGFQIAKRTIILDQSTVLANNLSVFF
notes: the final models include the complete β-subunit; Co-produced and co-purified with the α-subunit as the (αβ)3 oxygenase; three copies in the hexamer; also called β of BphAE; BPDO β; source: heterologously produced and purified anaerobically as described previously [17]

Tests used:
[1] = target: the molecule itself; test: crystal structure; crystals grown anaerobically by sitting drop vapor diffusion (citrate pH 5.8 or MES pH 6.0), space group R3, one αβ protomer in the asymmetric unit; three αβ protomers about the crystallographic three-fold axis form the (αβ)3 hexamer; without and with biphenyl
[2] = target: B1; test: as above; conditions: both partners purified

Row | Binder | binding result [1] | binding result [2]
1 | B1 | binds | 
2 | B2 | binds | binds
